The target of assay [1] is T1, Human IL-1β (human, UniProt P01584 117-269). Kind of assay: cell-based or functional assay.
For another assay, the target named is Cyno IL-1β (cyno, UniProt P79182 117-268). Kind of assay: cell-based or functional assay.
Assay [2] addresses T1, Human IL-1β. Kind of assay: MSD-SET (solution equilibrium titration, electrochemiluminescence), 37° C., 72 h equilibrium. As to the method: MSD (Meso Scale Discovery) electrochemiluminescence assay is utilized to measure the affinity of Antibody I, Antibody II, and Canakinumab against human IL-1β. First, the equilibrium mixture of antibodies and human IL-1β is set up; in the mixture the antibody, concentrations are kept constant at 1 pM, 10 pM, and 100 pM whereas the ligand is titrated in the concentration ranging from 0.9 nM to 0.00004 nM (2.5 times dilution between concentrations) The equilibrium mixture is set up in sealed non-binding 96-well plate at 37° C. for 72 hours.
MSD Gold Streptavidin plates are used to detect the free antibodies in the equilibrium mixture. The MSD plates are first blocked with blocking buffer (PBS+1% BSA) for 1 hour on a shaker set at 800 rpm and then washed 3 times with washing buffer PBST (PBS ±0.05% Tween 20). The plates are coated with biotinylated human IL-1p followed by 3× washing with PBST. The equilibrium mixtures are added to the coated plate, incubated at room temperature with shaking for 2.5 mins and immediately washed 3× with PBST. The goat anti-human Sulfo-TAG antibody is added to the plate and incubated at room temperature for 1 hour with shaking. After three more washes, MSD Read Buffer at 1:2 concentration diluted in MilliQ water is added to the wells. immediately afterwards, the plates are read using an MSD Sector Imager 516000 instrument.

The values that follow come from patent US20230057665A1 (Eli Lilly, published 2023).

One may read the Kd as the concentration at which binding is half-saturated. Read a low Kd as tighter binding.

B1: Canakinumab (antibody, human IgG4 S228P, kappa, F234A L235A, V domains shown)
VH: QVQLVESGGGVVQPGRSLRLSCAASGFTFSVYGMNWVRQAPGKGLEWVAIIWYDGDNQYYADSVKGRFTISRDNSKNTLYLQMNGLRAEDTAVYYCARDLRTGPFDYWGQGTLVTVSS
VL: EIVLTQSPDFQSVTPKEKVTITCRASQSIGSSLHWYQQKPDQSPKLLIKYASQSFSGVPSRFSGSGSGTDFTLTINSLEAEDAAAYYCHQSSSLPFTFGPGTKVDIKR
In the case of B1, the “Human IL-1β Inhibition IC50 (HEK-Blue IL-1β reporter cells, 4 pM IL-1β)” value with Human IL-1β [1] came out at 29.2 pM. Besides, the “Cyno IL-1β Inhibition IC50 (HEK-Blue IL-1β reporter cells, 4 pM IL-1β)” value with Cyno IL-1β was greater than 10000 pM. This molecule displayed an equilibrium dissociation constant (Kd) with Human IL-1β [2] of 0.0131 nM.
